Several values for one entry are separate records, joined by “and”; a condition that tells them apart may be missing. Equal entries are not always repeated.
Legend:
Fluos-msR4M-L1 (human) [1] = target: Fluos-msR4M-L1 (human) (UniProt P61073); assay: other fluorescence titration; 5 nM Fluos-labeled ectodomain peptide titrated with unlabeled MIF, MIF peptide or CXCL12; 10 mM sodium phosphate, pH 7.4, 1% HFIP; emission at 522 nm; apparent KD, 1/1 binding model; one constant for each of three curves
Fluos-msR4M-L1 (human) [2] = target: Fluos-msR4M-L1 (human) (UniProt P61073); assay: fluorescence polarisation; 5 nM Fluos-msR4M-L1 titrated with unlabeled MIF (0.5 to 277.5 nM); 10 mM sodium phosphate, pH 7.2, 0.5% HFIP; RT; apparent KD
[3] = target: 5(6)-carboxytetramethylrhodamine (TAMRA)-msR4M-L1 (human) (UniProt P61073); assay: MST; 100 nM TAMRA-msR4M-L1 titrated with MIF or CXCL12; 20 mM sodium phosphate, pH 7.2, Tween-20; 37 °C; apparent KD
[4] = target: Fluos-ECL2 (fluorescein-labelled ECL2[182–196] peptide of CXCR4) (human) (UniProt P61073); assay: other fluorescence titration; Fluos-labelled CXCR4 ectodomain peptide at 5 nM titrated with unlabelled MIF, MIF(10xAla), CXCL12 or MIF peptide fragments; 10 mM sodium phosphate, pH 7.4, 1% HFIP; emission at 522 nm; apparent KD, 1/1 binding model

Substance | Kd (Fluos-msR4M-L1 (human) [1]) | Kd (Fluos-msR4M-L1 (human) [2]) | Kd [3] | Kd [4]
MIF peptide 38–80 (from UniProt P14174 38-80) | 64.6 nM and 49 nM and 57.7 nM | – | – | –
MIF peptide 54–80 (from UniProt P14174 54-80) | 86.6 nM and 59.7 nM and 65.3 nM | – | – | –
macrophage migration-inhibitory factor (MIF), recombinant human (from UniProt P14174 1-115) (natural protein) | 44.7 nM and 40.4 nM and 36.9 nM | 24.1 nM and 19.3 nM and 29.9 nM | 51.7 nM and 120 nM and 60.1 nM | –
macrophage migration-inhibitory factor (MIF), recombinant human, unlabelled (from UniProt P14174 1-115) (natural protein) | – | – | – | > 5000 nM
